We go through one protein from patent publication US9127035B2, “Compounds for use in the treatment of bacterial infection” (THE ROYAL INSTITUTION FOR THE ADVANCEMENT OF …, priority 2011, dated 2015).

In general, Km refers to the substrate concentration at which the rate is half of its maximum. What is called kcat is the maximal rate divided by the concentration of active sites. As a reminder, the kcat/Km is the second-order rate constant that governs catalysis at low substrate concentration.

Test in all cases: PanK enzyme assay (Michaelis-Menten kinetics)
Holding throughout (type): biochemical, E. coli
Conditions in all cases: other: transformation by PanK, 25° C., Tris-HCl pH 7.6, triplicate

Substrate in data set [1]: [H][C@]1(O[C@H]2[C@H](O)[C@@H](O)[C@H](N)C[C@@H]2N)O[C@H](CNC(=O)CCCCSCCNC(=O)CCNC(=O)[C@H](O)C(C)(C)CO)[C@@H](O)[C@H](O)[C@H]1N
As to the method:
(§1) PanK enzyme assay. The E. coli pantothenate kinase (PanK or coaA enzyme) was expressed and purified as previously described. Enzyme activity was measured as described in the literature [Strauss E, Begley T P J Biol Chem, 2002, 277:48205-48209]. This assay couples the production of ADP to the consumption of NADH through the activity of pyruvate kinase and lactic dehydrogenase. The decrease of NADH concentration was monitored at 340 nm. Reactions were performed at 25° C. in an Agilent 8453 UV-Vis spectrophotometer coupled to an Agilent 89090A Peltier temperature controller. Kinetic parameters were determined by fitting the rate data into the Michaelis-Menten equation using Prism 4.0 (GraphPad). Each reaction mixture (500 μL) contained ATP (1.5 mM), NADH (0.3 mM), phosphoenolpyruvate (0.5 mM), MgCl2 (10 mM), KCl (20 mM), pyruvate kinase (5 units), lactic dehydrogenase (5 units), and PanK (5 μg, 278 nM) in Tris-HCl buffer (50 mM, pH 7.6). The reaction was initiated by addition of the desired substrate (10-160 μM). All data points are from triplicate experiments.

Substrate in data set [2]: [H][C@]1(O[C@H]2[C@H](O)[C@@H](O)[C@H](N)C[C@@H]2N)O[C@H](CNC(=O)CCCSCCNC(=O)CCNC(=O)[C@H](O)C(C)(C)CO)[C@@H](O)[C@H](O)[C@H]1N
As to the method: as §1

Substrate in data set [3]: [H][C@]1(O[C@H]2[C@H](O)[C@@H](O)[C@H](N)C[C@@H]2N)O[C@H](CNC(=O)CCSCCNC(=O)CCNC(=O)[C@H](O)C(C)(C)CO)[C@@H](O)[C@H](O)[C@H]1N
The method, then:
as §1

Substrate in data set [4]: CC(C)(CO)[C@@H](O)C(=O)NCCC(=O)NCCSCCCCCC(=O)NC[C@H]1O[C@H](O[C@H]2[C@H](O)[C@@H](O)[C@H](N)C[C@@H]2N)[C@H](N)[C@@H](O)[C@@H]1O
As to the method:
as §1

B1: E. coli pantothenate kinase (PanK or coaA enzyme) (Escherichia coli K-12) (protein)
chain: MSIKEQTLMTPYLQFDRNQWAALRDSVPMTLSEDEIARLKGINEDLSLEEVAEIYLPLSRLLNFYISSNLRRQAVLEQFLGTNGQRIPYIISIAGSVAVGKSTTARVLQALLSRWPEHRRVELITTDGFLHPNQVLKERGLMKKKGFPESYDMHRLVKFVSDLKSGVPNVTAPVYSHLIYDVIPDGDKTVVQPDILILEGLNVLQSGMDYPHDPHHVFVSDFVDFSIYVDAPEDLLQTWYINRFLKFREGAFTDPDSYFHNYAKLTKEEAIKTAMTLWKEINWLNLKQNILPTRERASLILTKSANHAVEEVRLRK
notes: made in house
As for B1, the Km in data set [1] is 230 ± 69 µM; in data set [2] it was 350 ± 80 µM; in data set [3] it was 480 ± 160 µM; in data set [4], 170 ± 50 µM. The catalytic constant (kcat) in data set [1] was determined as 0.52 ± 0.08 s⁻¹; in data set [2], 0.5 ± 0.05 s⁻¹; in data set [3] it was 0.47 ± 0.05 s⁻¹. Moreover, the kcat/Km was found to be 2300 ± 800 M⁻¹ s⁻¹ in data set [1], 1400 ± 400 M⁻¹ s⁻¹ in data set [2] and 1000 ± 300 M⁻¹ s⁻¹ in data set [3].
